# Experimental data as given in patent publication US9260500B2, “Peptide and use thereof” (Takeda Pharmaceutical Company Limited, priority 2009, dated 2016).
# Starred links: 1 amine or outer side, 2 acyl side, 3 side chain; linkers in the order of their positions; H or OH if unused. Non-standard residues stand in square brackets, D forms with d. Primed or numbered codes have the meaning given here. *: point of attachment. Ser(Me)″ = O-methylserine, COC[C@H](N[*:1])C(=O)[*:2]; 4Pal = N[C@@H](Cc1ccncc1)C(=O)O; dHyp = O=C(O)[C@H]1C[C@H](O)CN1; Cha = N[C@@H](CC1CCCCC1)C(=O)O; Cit = NC(=O)NCCC[C@H](N)C(=O)O; hSer = N[C@@H](CCO)C(=O)O; Isobutyryl = CC(C)C(=O)*; Iva = CC[C@](C)(N)C(=O)O; Nva = CCC[C@H](N)C(=O)O; Abu = CC[C@H](N)C(=O)O; Dap = NC[C@H](N)C(=O)O; Nleu = CC(C)CNCC(=O)O; Aib = CC(C)(N)C(=O)O; Bz = O=C(c1ccccc1)*
# Experiments:
# human Y2 receptor [1] = molecular target: T1, human Y2 receptor (Homo sapiens, UniProt P49146); experiment: Human Y2 Receptor G Protein Binding Assay (GBA), [35S]GTPγS; assay type: biochemical; conditions: EC50 of test compound/EC50 of PYY(3-36) (PYY3-36 taken as 1), hY2R/CHO membrane fraction
# T1 construct: expressed in transfected cells; membrane fraction
# T1 sequence (P49146 1-381): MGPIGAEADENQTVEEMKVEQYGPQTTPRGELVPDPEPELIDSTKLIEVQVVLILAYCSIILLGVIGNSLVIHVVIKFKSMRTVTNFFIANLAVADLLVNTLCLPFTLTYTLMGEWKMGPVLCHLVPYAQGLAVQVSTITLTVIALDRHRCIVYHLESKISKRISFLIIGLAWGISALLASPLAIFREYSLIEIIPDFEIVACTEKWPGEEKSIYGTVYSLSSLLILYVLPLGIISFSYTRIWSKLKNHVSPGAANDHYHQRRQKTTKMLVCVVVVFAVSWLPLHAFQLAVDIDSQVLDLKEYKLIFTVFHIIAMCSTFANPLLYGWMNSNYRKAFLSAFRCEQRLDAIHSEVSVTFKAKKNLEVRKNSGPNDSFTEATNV
# Procedure, shortened: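 Agonism measured as [35S]GTPγS binding, read by GF/C filtration and scintillation counting after 120 min at room temperature, using human Y2 membranes at 1 μg protein/mL in pH 7.4 Tris/MgCl2/NaCl/GDP buffer. Compound serially diluted 100 μM–1 nM; EC50 normalized to PYY(3-36) (ratio = compound/PYY).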
# human Y2 receptor [2] = molecular target: T1, human Y2 receptor; experiment: Receptor Binding Assay (RBA) for Human Y2, [125I]-PYY displacement on hY2R/CHO membrane fraction; conditions: IC50 of test compound/IC50 of PYY(3-36) (PYY(3-36) taken as 1)
# Procedure, shortened: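 Read-out is [125I]-PYY displacement from membranes of CHO/dhfr− cells stably transfected with human Y2R. Membranes were obtained by disrupting cells in a buffer of 10 mM NaHCO3, 5 mM EDTA and protease inhibitors.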
Substance,GBA EC50 Ratio (human Y2 receptor [1]),RBA IC50 Ratio (human Y2 receptor [2])
"Ac-[Glu23, D-Pro24, Pya(4)26, Cha27,36, Aib28,31, Lys30]-PYY(23-36) (Ac-E[dP]R[4Pal][Cha][Aib]NK[Aib]TRQR[Cha]-NH2; SMILES CC(=O)N[C@@H](CCC(=O)O)C(=O)N1CCC[C@@H]1C(=O)N[C@@H](CCCNC(=N)N)C(=O)N[C@@H](Cc1ccncc1)C(=O)N[C@@H](CC1CCCCC1)C(=O)NC(C)(C)C(=O)N[C@@H](CC(N)=O)C(=O)N[C@@H](CCCCN)C(=O)NC(C)(C)C(=O)N[C@H](C(=O)N[C@@H](CCCNC(=N)N)C(=O)N[C@@H](CCC(N)=O)C(=O)N[C@@H](CCCNC(=N)N)C(=O)N[C@@H](CC1CCCCC1)C(N)=O)[C@@H](C)O) [compound No. 209]",1.9,2.7
"Ac-[D-Hyp24, Cha27,28,36, Aib31]-PYY(23-36) (Ac-S[dHyp]RH[Cha][Cha]NL[Aib]TRQR[Cha]-NH2; SMILES CC(=O)N[C@@H](CO)C(=O)N1C[C@@H](O)C[C@@H]1C(=O)N[C@@H](CCCNC(=N)N)C(=O)N[C@@H](Cc1c[nH]cn1)C(=O)N[C@@H](CC1CCCCC1)C(=O)N[C@@H](CC1CCCCC1)C(=O)N[C@@H](CC(N)=O)C(=O)N[C@@H](CC(C)C)C(=O)NC(C)(C)C(=O)N[C@H](C(=O)N[C@@H](CCCNC(=N)N)C(=O)N[C@@H](CCC(N)=O)C(=O)N[C@@H](CCCNC(=N)N)C(=O)N[C@@H](CC1CCCCC1)C(N)=O)[C@@H](C)O) [compound No. 114]",0.9,1.1
"Ac-[D-Pro24, Cha27,28,36, Iva30, Aib31]-PYY(23-36) (Ac-S[dP]RH[Cha][Cha]N[Iva][Aib]TRQR[Cha]-NH2; SMILES CC[C@](C)(NC(=O)[C@H](CC(N)=O)NC(=O)[C@H](CC1CCCCC1)NC(=O)[C@H](CC1CCCCC1)NC(=O)[C@H](Cc1c[nH]cn1)NC(=O)[C@H](CCCNC(=N)N)NC(=O)[C@H]1CCCN1C(=O)[C@H](CO)NC(C)=O)C(=O)NC(C)(C)C(=O)N[C@H](C(=O)N[C@@H](CCCNC(=N)N)C(=O)N[C@@H](CCC(N)=O)C(=O)N[C@@H](CCCNC(=N)N)C(=O)N[C@@H](CC1CCCCC1)C(N)=O)[C@@H](C)O) [compound No. 202]",20,43
"Benzoyl-[Cha27,36, Ile28, Dap31]-PYY(25-36) (Bz-RH[Cha]INL[Dap]TRQR[Cha]-NH2; SMILES CC[C@H](C)[C@H](NC(=O)[C@H](CC1CCCCC1)NC(=O)[C@H](Cc1c[nH]cn1)NC(=O)[C@H](CCCNC(=N)N)NC(=O)c1ccccc1)C(=O)N[C@@H](CC(N)=O)C(=O)N[C@@H](CC(C)C)C(=O)N[C@@H](CN)C(=O)N[C@H](C(=O)N[C@@H](CCCNC(=N)N)C(=O)N[C@@H](CCC(N)=O)C(=O)N[C@@H](CCCNC(=N)N)C(=O)N[C@@H](CC1CCCCC1)C(N)=O)[C@@H](C)O) [compound No. 69]",28,37
"Isobutanoyl-[Abu26, Gly27, Cha28,36, Aib31]-PYY(25-36) (Isobutyryl-R[Abu]G[Cha]NL[Aib]TRQR[Cha]-NH2; SMILES CC[C@H](NC(=O)[C@H](CCCNC(=N)N)NC(=O)C(C)C)C(=O)NCC(=O)N[C@@H](CC1CCCCC1)C(=O)N[C@@H](CC(N)=O)C(=O)N[C@@H](CC(C)C)C(=O)NC(C)(C)C(=O)N[C@H](C(=O)N[C@@H](CCCNC(=N)N)C(=O)N[C@@H](CCC(N)=O)C(=O)N[C@@H](CCCNC(=N)N)C(=O)N[C@@H](CC1CCCCC1)C(N)=O)[C@@H](C)O) [compound No. 95]",49,70
"Ac-[Phe22, D-Pro24, Pya(4)26, Cha27,36, Aib28,31, Lys30]-PYY(22-36) (Ac-FS[dP]R[4Pal][Cha][Aib]NK[Aib]TRQR[Cha]-NH2; SMILES CC(=O)N[C@@H](Cc1ccccc1)C(=O)N[C@@H](CO)C(=O)N1CCC[C@@H]1C(=O)N[C@@H](CCCNC(=N)N)C(=O)N[C@@H](Cc1ccncc1)C(=O)N[C@@H](CC1CCCCC1)C(=O)NC(C)(C)C(=O)N[C@@H](CC(N)=O)C(=O)N[C@@H](CCCCN)C(=O)NC(C)(C)C(=O)N[C@H](C(=O)N[C@@H](CCCNC(=N)N)C(=O)N[C@@H](CCC(N)=O)C(=O)N[C@@H](CCCNC(=N)N)C(=O)N[C@@H](CC1CCCCC1)C(N)=O)[C@@H](C)O) [compound No. 275]",0.89,1.2
"Ac-[Thr23, D-Pro24, Pya(4)26, Cha27,36, Aib28,31, Lys30]-PYY(23-36) (Ac-T[dP]R[4Pal][Cha][Aib]NK[Aib]TRQR[Cha]-NH2; SMILES CC(=O)N[C@H](C(=O)N1CCC[C@@H]1C(=O)N[C@@H](CCCNC(=N)N)C(=O)N[C@@H](Cc1ccncc1)C(=O)N[C@@H](CC1CCCCC1)C(=O)NC(C)(C)C(=O)N[C@@H](CC(N)=O)C(=O)N[C@@H](CCCCN)C(=O)NC(C)(C)C(=O)N[C@H](C(=O)N[C@@H](CCCNC(=N)N)C(=O)N[C@@H](CCC(N)=O)C(=O)N[C@@H](CCCNC(=N)N)C(=O)N[C@@H](CC1CCCCC1)C(N)=O)[C@@H](C)O)[C@@H](C)O) [compound No. 211]",0.69,1.1
"Ac-[D-Pro24, Iva25, Pya(4)26, Cha27,36, Nva28, Aib31, Lys30]-PYY(23-36) (Ac-S[dP][Iva][4Pal][Cha][Nva]NK[Aib]TRQR[Cha]-NH2; SMILES CCC[C@H](NC(=O)[C@H](CC1CCCCC1)NC(=O)[C@H](Cc1ccncc1)NC(=O)[C@](C)(CC)NC(=O)[C@H]1CCCN1C(=O)[C@H](CO)NC(C)=O)C(=O)N[C@@H](CC(N)=O)C(=O)N[C@@H](CCCCN)C(=O)NC(C)(C)C(=O)N[C@H](C(=O)N[C@@H](CCCNC(=N)N)C(=O)N[C@@H](CCC(N)=O)C(=O)N[C@@H](CCCNC(=N)N)C(=O)N[C@@H](CC1CCCCC1)C(N)=O)[C@@H](C)O) [compound No. 352]",1.3,1.6

# Second part, the substance after the results:
GBA EC50 Ratio (human Y2 receptor [1]),RBA IC50 Ratio (human Y2 receptor [2]),Substance
8.4,20,"Ac-[N(iBu)Gly24, Cha27,28,36, Aib31]-PYY(23-36) (Ac-S[Nleu]RH[Cha][Cha]NL[Aib]TRQR[Cha]-NH2; SMILES CC(=O)N[C@@H](CO)C(=O)N(CC(=O)N[C@@H](CCCNC(=N)N)C(=O)N[C@@H](Cc1c[nH]cn1)C(=O)N[C@@H](CC1CCCCC1)C(=O)N[C@@H](CC1CCCCC1)C(=O)N[C@@H](CC(N)=O)C(=O)N[C@@H](CC(C)C)C(=O)NC(C)(C)C(=O)N[C@H](C(=O)N[C@@H](CCCNC(=N)N)C(=O)N[C@@H](CCC(N)=O)C(=O)N[C@@H](CCCNC(=N)N)C(=O)N[C@@H](CC1CCCCC1)C(N)=O)[C@@H](C)O)CC(C)C) [compound No. 108]"
1.8,1.1,"Ac-[D-Pro24, Pya(4)26, Cha27,36, Aib28,31, Arg30]-PYY(23-36) (Ac-S[dP]R[4Pal][Cha][Aib]NR[Aib]TRQR[Cha]-NH2; SMILES CC(=O)N[C@@H](CO)C(=O)N1CCC[C@@H]1C(=O)N[C@@H](CCCNC(=N)N)C(=O)N[C@@H](Cc1ccncc1)C(=O)N[C@@H](CC1CCCCC1)C(=O)NC(C)(C)C(=O)N[C@@H](CC(N)=O)C(=O)N[C@@H](CCCNC(=N)N)C(=O)NC(C)(C)C(=O)N[C@H](C(=O)N[C@@H](CCCNC(=N)N)C(=O)N[C@@H](CCC(N)=O)C(=O)N[C@@H](CCCNC(=N)N)C(=O)N[C@@H](CC1CCCCC1)C(N)=O)[C@@H](C)O) [compound No. 263]"
5.7,5.8,"Ac-[D-Pro24, Pya(4)26, Cha27,36, Aib28,31, Hse30]-PYY(23-36) (Ac-S[dP]R[4Pal][Cha][Aib]N[hSer][Aib]TRQR[Cha]-NH2; SMILES CC(=O)N[C@@H](CO)C(=O)N1CCC[C@@H]1C(=O)N[C@@H](CCCNC(=N)N)C(=O)N[C@@H](Cc1ccncc1)C(=O)N[C@@H](CC1CCCCC1)C(=O)NC(C)(C)C(=O)N[C@@H](CC(N)=O)C(=O)N[C@@H](CCO)C(=O)NC(C)(C)C(=O)N[C@H](C(=O)N[C@@H](CCCNC(=N)N)C(=O)N[C@@H](CCC(N)=O)C(=O)N[C@@H](CCCNC(=N)N)C(=O)N[C@@H](CC1CCCCC1)C(N)=O)[C@@H](C)O) [compound No. 265]"
1.7,5.5,"Ac-[D-Pro24, Cit26, Cha27,28,36, Aib31]-PYY(23-36) (Ac-S[dP]R[Cit][Cha][Cha]NL[Aib]TRQR[Cha]-NH2; SMILES CC(=O)N[C@@H](CO)C(=O)N1CCC[C@@H]1C(=O)N[C@@H](CCCNC(=N)N)C(=O)N[C@@H](CCCNC(N)=O)C(=O)N[C@@H](CC1CCCCC1)C(=O)N[C@@H](CC1CCCCC1)C(=O)N[C@@H](CC(N)=O)C(=O)N[C@@H](CC(C)C)C(=O)NC(C)(C)C(=O)N[C@H](C(=O)N[C@@H](CCCNC(=N)N)C(=O)N[C@@H](CCC(N)=O)C(=O)N[C@@H](CCCNC(=N)N)C(=O)N[C@@H](CC1CCCCC1)C(N)=O)[C@@H](C)O) [compound No. 152]"
8.7,18,"Benzoyl-[Ser(Me)26, Cha27,28,36, Aib31]-PYY(25-36) (Bz-R[Ser(Me)″][Cha][Cha]NL[Aib]TRQR[Cha]-NH2; SMILES COC[C@H](NC(=O)[C@H](CCCNC(=N)N)NC(=O)c1ccccc1)C(=O)N[C@@H](CC1CCCCC1)C(=O)N[C@@H](CC1CCCCC1)C(=O)N[C@@H](CC(N)=O)C(=O)N[C@@H](CC(C)C)C(=O)NC(C)(C)C(=O)N[C@H](C(=O)N[C@@H](CCCNC(=N)N)C(=O)N[C@@H](CCC(N)=O)C(=O)N[C@@H](CCCNC(=N)N)C(=O)N[C@@H](CC1CCCCC1)C(N)=O)[C@@H](C)O) [compound No. 98]"
